Assay results published in patent US20070178098A1.

Assays:
[1] = molecular target: human IL-6 (human) (UniProt P05231); assay: cell-based or functional assay
[2] = molecular target: Fc-IL6Ralpha-IL6 (human IL-6Ralpha and IL-6; mouse Fc); assay: cell-based or functional assay
Fc-IL6Ralpha-IL6 (human IL-6Ralpha and IL-6; mouse Fc), sequence (chain, as listed by the source limits assumed): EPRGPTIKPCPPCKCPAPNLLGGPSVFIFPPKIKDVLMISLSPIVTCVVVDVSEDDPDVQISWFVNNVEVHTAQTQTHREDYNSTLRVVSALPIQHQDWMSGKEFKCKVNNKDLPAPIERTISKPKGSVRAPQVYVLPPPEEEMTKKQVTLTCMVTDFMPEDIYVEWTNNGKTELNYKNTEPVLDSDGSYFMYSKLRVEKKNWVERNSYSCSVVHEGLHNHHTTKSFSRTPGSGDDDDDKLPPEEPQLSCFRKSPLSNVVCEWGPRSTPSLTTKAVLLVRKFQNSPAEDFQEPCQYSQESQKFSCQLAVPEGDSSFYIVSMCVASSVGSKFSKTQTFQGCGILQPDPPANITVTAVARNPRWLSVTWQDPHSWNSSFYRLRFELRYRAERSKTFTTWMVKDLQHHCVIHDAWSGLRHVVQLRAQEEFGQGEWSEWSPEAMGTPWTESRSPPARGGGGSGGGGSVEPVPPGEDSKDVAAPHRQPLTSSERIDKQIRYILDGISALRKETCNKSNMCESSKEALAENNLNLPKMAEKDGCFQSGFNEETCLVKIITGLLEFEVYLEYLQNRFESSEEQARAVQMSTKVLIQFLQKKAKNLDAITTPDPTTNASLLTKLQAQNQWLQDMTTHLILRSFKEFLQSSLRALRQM

human IL-6 (human), sequence (P05231 30-212 limits assumed): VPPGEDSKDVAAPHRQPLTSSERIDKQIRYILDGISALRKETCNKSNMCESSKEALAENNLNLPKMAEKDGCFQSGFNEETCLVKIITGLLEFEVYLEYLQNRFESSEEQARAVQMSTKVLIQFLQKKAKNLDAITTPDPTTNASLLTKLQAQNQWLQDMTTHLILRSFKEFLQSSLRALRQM

Haptoglobin Inhibition IC50 (HepG2 cells stimulated with IL-6) [1]: 0.00519 µg/mL
LP-1 Proliferation IC50 (stimulated with IL-6) [1]: 0.0101 µg/mL
8 Hours % Inhibition of haptoglobin secretion in mice given Fc-IL6Rα-IL6 [2]: 12%
24 hours % Inhibition of haptoglobin secretion in mice given Fc-IL6Rα-IL6 [2]: -3%
Haptoglobin Inhibition IC50 (HepG2 cells stimulated with IL-6Rα-IL-6) [2]: > 0.333 µg/mL
LP-1 Proliferation IC50 (stimulated with Fc-IL6Ralpha-IL6) [2]: 1.61 µg/mL
B1: CNTO-328 (antibody, INN chains, looked up, V domains shown)
VH: EVQLVESGGKLLKPGGSLKLSCAASGFTFSSFAMSWFRQSPEKRLEWVAEISSGGSYTYYPDTVTGRFTISRDNAKNTLYLEMSSLRSEDTAMYYCARGLWGYYALDYWGQGTSVTVSS
VL: QIVLIQSPAIMSASPGEKVTMTCSASSSVSYMYWYQQKPGSSPRLLIYDTSNLASGVPVRFSGSGSGTSYSLTISRMEAEDAATYYCQQWSGYPYTFGGGTKLEIK
